Values quoted from earlier work as cited in US6528620B1, “Sid-polyamide fusions: a potent method of regulating gene expression” (University of Utah Research Foundation, priority 1999, dated 2003).

Key:
Conditions in all cases: Ayer et al., Cell 80:767-776 (1995); cited from earlier work
PAH3 domain of mSin3A = target: T1, PAH3 domain of mSin3A (Mus musculus, UniProt Q60520)
T1 sequence (Q60520 457-526 limits assumed): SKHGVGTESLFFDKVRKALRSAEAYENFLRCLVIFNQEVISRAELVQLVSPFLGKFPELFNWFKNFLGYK

PAH1 domain of mSin3A = target: T2, PAH1 domain of mSin3A (Mus musculus, UniProt Q60520)
T2 sequence (Q60520 119-189 limits assumed): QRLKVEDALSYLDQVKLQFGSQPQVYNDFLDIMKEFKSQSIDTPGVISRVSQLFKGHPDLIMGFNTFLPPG

PAH4 domain of mSin3A = tested on: PAH4 domain of mSin3A
PAH4 domain of mSin3A, sequence (Q60520 889-968 limits assumed): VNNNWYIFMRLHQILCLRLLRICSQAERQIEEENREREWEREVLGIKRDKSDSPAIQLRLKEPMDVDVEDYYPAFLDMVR

B1: Mad1: bHLHZip transcriptional repressor protein of the Mad family (protein)
chain: MAAAVRMNIQMLLEAADYLERREREAEHGYASMLPYNNKDRDALKRRNKSKKNNSSSRSTHNEMEKNRRAHLRLCLEKLKGLVPLGPESSRHTTLSLLTKAKLHIKKLEDCDRKAVHQIDQLQREQRHLKRQLEKLGIERIRMDSIGSTVSSERSDSDREEIDVDVESTDYLTGDLDWSSSSVSDSDERGSMQSLGSDEGYSSTSIKRIKLQDSHKACLGL
modifications: left off: small tags and cut ends
notes: bHLHZip transcriptional repressor protein of the Mad family
no interaction is detected: interaction with PAH3 (PAH3 domain of mSin3A) | interaction with PAH1 (PAH1 domain of mSin3A) | interaction with PAH4 (PAH4 domain of mSin3A)
